{"source": "patent US20220235344A1", "about": "“TRYPSIN VARIANTS WITH IMPROVED ENZYMATIC PROPERTIES” (BIOPHARMA TRANSLATIONSINSTITUT DESSAU FORSCHUNGS GMBH, priority 2018, published 2022)", "molecules": {"B1": {"name": "A2C8: Trypsiligase II + H40F, A55A, R96E, K97D, L99F, N143E, E151Y, S190V, Q192A, S214G, G219Q, A221T (protein)", "chain": "IVGGYTCQENSVPYQVSLNSGHFFCGGSLINDQWVVSAAHCHESRIQVRLGEHNINVLEGNEQFVNAAKIIKHPNFDEDTFNNDIMLIKLSSPVKLNARVATVALPSSCAPAGTQCLISGWGETLSSGVNYPDLLQCLDAPLLPQADCEASYPGKITDNMVCVGFLEGGKKVCAGDSGGPVVCNGELQGIVGWGYQCTLPDNPGVYTKVCNYVDWIQDTIAAN"}}, "key": {"[1]": {"system": "R1-YRKH-R2 (Bz-PGGYRKHAG-OH) / H-RKHAK(DNP)-OH", "test": "Zinc dependence of the transamidation reaction, A2C8 and K7F11, YRKH", "assay_type": "biochemical", "settings": "100 μM acyl donor, 200 μM acyl acceptor", "experimental": "Model transamidation reactions were performed in a solution containing 15 to 250 μM acyl donor, 2 eq. of the corresponding acyl acceptor, varying concentrations of trypsin variant, 100 mM HEPES/NaOH pH 7.8, ±0.1 mM ZnC12, 100 mM NaCl, 10 mM CaCl2) at 30° C. Acyl donor and acyl acceptor had the same amino acids in P1′-P3′ position, e.g. Bz-[…]+H-RAHAK-OH or Bz-[…]+H-RKKAK-OH. Variations are indicated. The acyl acceptor could be equipped with a 2,4-Dinitrophenyl group (DNP) at the side chain of the terminal lysine, e.g. H-RAHAK(DNP)-OH or H-RKKAK(DNP)-OH. The reactions were started by the addition of enzyme. To record the time course of product formation and/or for kinetic evaluation of the reaction several aliquots of the reaction mixture were quenched with 25% (v/v) acetic acid at distinct time points within up to 4 hours. The composition of the reaction mixture was analyzed by UPCL with method I or II, depending on the absence (method 1) or presence (method II) of a 2,4-dinitrophenyl group within the acyl acceptor (see example 1). Measurements were performed as duplicates and errors were less than 5%."}, "[2]": {"system": "Bz PGGXaaXaaXaaHAG-OH / H-XaaXaaXaaAK(DNP)-OH (recognition sequences YRRH, YMKH, RMKH)", "test": "Time course of transamidation by A2C8_H39Y/H59Y/E60K/K189D and wild-type trypsin (FIG. 5)", "assay_type": "biochemical", "settings": "comparison value for A2C8", "experimental": "FIG. 5: Time course of the product formation for a transamidation reaction catalyzed by the variant A2C8_H39Y/H59Y/E60K/K189D as well as the wild-type Trypsin in correlation to various peptide substrates. Reaction conditions: 100 μM acyl donor (Bz PGGXaaXaaXaaHAG-OH), 200 μM acyl acceptor (H-XaaXaaXaaAK(DNP)-OH), 10 μM trypsin variant A2C8_H39Y/H59Y/E60K/K189D or 2.5 nM anionic rat trypsin II, 100 mM HEPES/NaOH pH 7.8, 0.1 mM ZnCl2, 100 mM NaCl, 10 mM CaCl2, T=30° C. UPLC analysis: Waters Acquity Ultra Performance LC, C18-column, gradient 5-60% acetonitrile, 5 min, detection at 360 nm.\nThe three substrates with the highest apparent turnover rate for the aminolysis reaction were then used for investigating the synthesis behavior of variant A2C8_H39Y/H59Y/E60K/K189D. In FIG. 5 the time course of product formation for a transamidation reaction catalyzed by variant A2C8_H39Y/H59Y/E60K/K189D with various peptide substrates is illustrated."}}}
{"molecule": "B1", "values": [{"measurement": "kcat, AL^app + Zn^2+ (mkat/mol)", "setting": "[1]; 0.1 mM ZnCl2", "value": 8.42, "unit": "mkat/mol"}, {"measurement": "product yield + Zn^2+ (%)", "setting": "[1]; 0.1 mM ZnCl2", "value": 55.0, "unit": "%"}, {"measurement": "kcat, AL^app − Zn^2+ (mkat/mol)", "setting": "[1]; absence of zinc ions", "value": 16.92, "unit": "mkat/mol"}, {"measurement": "product yield − Zn^2+ (%)", "setting": "[1]; absence of zinc ions", "value": 57.6, "unit": "%"}, {"measurement": "product yield at comparable conditions", "setting": "[2]", "value": 59, "unit": "%"}]}
